For one substance, activity results are on record in patent US6395548.

In this data set the target is EPAS1 (HIF-2alpha) (Homo sapiens) (UniProt Q99814). The data set can be described thus: cell_activity. As to conditions: luciferase reporter, 6 ug plasmid, BAEC; direct binding not shown.
EPAS1 (HIF-2alpha) (Homo sapiens), sequence (Q99814 whole entry): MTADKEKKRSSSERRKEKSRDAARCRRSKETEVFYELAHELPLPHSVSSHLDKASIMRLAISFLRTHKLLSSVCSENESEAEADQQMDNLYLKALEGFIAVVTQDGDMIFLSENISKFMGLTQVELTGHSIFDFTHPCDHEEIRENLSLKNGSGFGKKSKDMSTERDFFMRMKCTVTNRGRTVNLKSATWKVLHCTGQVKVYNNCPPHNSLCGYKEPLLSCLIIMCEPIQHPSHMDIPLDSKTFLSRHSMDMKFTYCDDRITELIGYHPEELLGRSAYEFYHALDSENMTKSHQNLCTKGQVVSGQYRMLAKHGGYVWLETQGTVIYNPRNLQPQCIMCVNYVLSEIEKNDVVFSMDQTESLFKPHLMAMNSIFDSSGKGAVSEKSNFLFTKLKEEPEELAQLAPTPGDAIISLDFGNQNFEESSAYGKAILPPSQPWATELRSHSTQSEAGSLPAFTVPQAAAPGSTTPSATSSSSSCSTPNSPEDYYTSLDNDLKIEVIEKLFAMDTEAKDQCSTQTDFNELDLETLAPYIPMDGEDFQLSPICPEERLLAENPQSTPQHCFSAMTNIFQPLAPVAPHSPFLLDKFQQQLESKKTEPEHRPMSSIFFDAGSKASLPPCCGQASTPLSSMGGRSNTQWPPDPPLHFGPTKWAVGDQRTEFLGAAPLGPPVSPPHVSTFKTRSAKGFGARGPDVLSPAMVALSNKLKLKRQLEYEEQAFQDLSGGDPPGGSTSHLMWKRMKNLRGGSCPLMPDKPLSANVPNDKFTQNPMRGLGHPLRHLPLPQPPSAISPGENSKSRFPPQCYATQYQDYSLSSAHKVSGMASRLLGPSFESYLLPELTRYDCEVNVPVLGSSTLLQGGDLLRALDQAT

KDR/flk-1 promoter -4 kb to +296 displayed an activity of 12.9 fold.
